Data: patent publication US12173057B2, “Antibodies and therapeutic uses thereof” (Ibex Biosciences, Inc., priority 2018, dated 2024)
“Also recorded” adds a separate entry of the source. Each block holds one molecule with its values, some of them ahead of it.

Assays:
MDA-MB-231 cells = test: ORIS cell migration (motility) assay; type: cell-based, human
Protocol: Cell motility assays utilized the Platypus Technologies ORIS™ cell migration assay platform, which is generally described at platypustech.com/discoverAssay.html.
Specifically, the filamin-A antibodies of the present disclosure were evaluated in the ORIS™ cell migration assay, which used tri-coated 96 well plates (Platypus #CMATR1.101). Cells were seeded at approximately 50,000 cells/well. Cells were incubated overnight at 37° C. without CO2 in DMEM, in the case of HEK-293 cells, or L-15 containing 10% FBS, in the case of MDA-MB-231 cells. Stoppers covering cell growth chambers were removed with the ORIS™ stopper tool, growth media was removed, and wells were gently washed with 100 microliters of sterile PBS. Stoppers were left in place in reference wells until the staining step to serve as pre-migration controls. After washing, a 100 microliter volume of fresh culture media containing the specific treatment was added to each well. The cells were then allowed to incubate overnight. At the end of the incubation period, cells were fluorescently stained with Calcein AM for 30 minutes. Fluorescence was then measured using a microplate reader with a Detection Mask in place.
FIGS. 1 and 2 depict the relative fluorescence units (RFUs) present in the detection zones for each condition (mean+/−S.D., n=2 wells/condition).
Wells containing the cells existed in three formats: coated with collagen, coated with fibronectin, or a tissue culture (TC) treatment.
Well treatments were as follows: no antibody control, mouse antibody (mAb FLNA 1 mcg/ml), mouse antibody (mAb FLNA 20 mcg/ml), human chimeric antibody (hAb FLNA 1 mcg/ml), human chimeric antibody (hAb FLNA 20 mcg/ml), apicdin (100 nM), cytochalasin B (30 micromolar); see FIG. 1. An increase in the number of RFUs correlates with an increase in cellular motility.

filamin-A = test: Immunofluorescence assays with MDA-MB-231 breast cancer cell line; type: cell-based, human
Protocol: Characterization of the filamin-A mAbs was performed using immunofluorescence assays with the MDA-MB-231 breast cancer cell line. […] For comparison, the AHO1402 mAb and another commercially available mAb, TI10 (Millipore MAB1680-C), were assayed at the same time.
The primary antibodies utilized in the immunofluorescence assays were as follows: • Anti-Filamin-A, clone TI10 (Millipore, p/n MAB1680-C) • Anti-Filamin-A, clone 209 #13 (Life Technologies, p/n AHO1402) • Anti-Filamin-A, mouse mAb • Anti-Filamin-A, human chimeric mAb • Anti-beta Actin, rabbit polyclonal (Rockland, p/n 600-401-886S)
Two primary methods of Immunofluorescence staining were utilized. The first method comprises single staining or double staining with methanol as a fixative and 0.2% Triton as a permeabilization agent, which is described in Alper et al. 2009. The second method utilizes a double staining technique with 2% paraformaldehyde as a fixative and 0.2% triton as a permeabilization agent.
Primary antibodies were incubated with the fixed and permeabilized cells for 1 hour at room temperature at a concentration of 1.25 mcg/ml. After one or more wash steps, secondary antibodies were incubated with the cells for 1 hour at room temperature. […]

[1] = tested on: MDA-MB-231 breast cancer cells; test: ORIS cell migration assay with Calcein AM / propidium iodide / Hoechst 33342 staining; type: cell-based, human; conditions: overnight incubation with antibody versus buffer control
Protocol: Additional cell assays were carried out using the B411 antibody and the breast cancer cell lines MDA-MB-231 and SKBR3. Specifically, the filamin-A antibody B411 was evaluated in the ORIS™ cell migration assay, which used tri-coated 96 well plates (Platypus #CMATR1.101). Cells were seeded at approximately 25,000 or 50,000 cells/well. Cells were incubated overnight at 37° C., CO2, McCoy's in the case of SKBR3 cells, or L-15 containing 10% FBS, without CO2 in the case of MDA-MB-231 cells. Stoppers covering cell growth and migration zones were removed with the ORIS™ stopper tool, growth media was removed, and wells gently washed with 100 microliters of sterile PBS. Stoppers were left in place in reference wells until the staining step to serve as no-migration controls. After washing, a 100 microliter volume of fresh culture media containing the specific treatment was added to each well. The cells were then allowed to incubate overnight. At the end of the incubation period, cells were fluorescently stained as follows: • Carefully remove remaining culture medium from wells and wash with 100 μL of PBS. […] Fluorescence was then measured using a microplate reader with a Detection Mask in place. • Carefully remove Calcein AM and wash with 100 μL of PBS. […] Incubate 5-10 min at room temperature. • Take a fluorescence image (blue, green and red channels) of a representative well(s) using 5× magnification.

[2] = tested on: SKBR3 cells (breast adenocarcinoma); test: Endocytosis assay (Zenon pHrodo labelled antibody, flow cytometry); type: cell-based, human; conditions: 12 μg/mL labelled antibody; 24 hours, 37° C.
Protocol: Experiments were conducted to determine if antibody B411 is endocytosed by cells. 250,000 cells/well were plated and incubated overnight at 37° C., 5% CO2. 12 μg/mL of antibodies were labelled with Zenon pHrodo kit (human green) according to the manufacturer's protocol for 5 minutes at room temperature, in the dark. The plated cells were then incubated with the labeled antibodies for 24 hours, at 37° C., 5% CO2. Cells were then lifted by manual scraping, and washed prior to analysis by flow cytometry.

[3] = molecular target: T1, surface filamin A on SKOV3 cell line (ovarian cancer) (Homo sapiens, UniProt P21333); test: B411 surface staining by flow cytometry; type: binding; conditions: 2 μg primary antibody, 1 hour on ice
T1 construct: endogenous in cells; host or cells: SKOV3
Protocol: (§1) B411 surface staining on several different cell types was conducted. Cells were plated at a concentration of 0.5-1.0 million cells per well, and incubated overnight. Cells were then lifted from the wells, washed, and resuspended in flow cytometry media with 2 μg of primary antibody for 1 hour on ice. Cells were washed and incubated with the secondary antibody (5 μg/ml) for 30 minutes on ice. Cells were washed again and analyzed by flow cytometry.

[4] = molecular target: T2, surface filamin A on SKBR3 (breast adenocarcinoma) cell line (Homo sapiens, UniProt P21333); test: B411 surface staining by flow cytometry; type: binding; conditions: 2 μg primary antibody, 1 hour on ice
T2 construct: endogenous in cells; host or cells: SKBR3
Protocol: as §1

[5] = molecular target: T3, surface filamin A on HeLa cells (Homo sapiens, UniProt P21333); test: B411 surface staining by flow cytometry; type: binding; conditions: 2 μg primary antibody, 1 hour on ice
T3 construct: endogenous in cells; host or cells: HeLa
Protocol: as §1

[6] = molecular target: T4, surface filamin A on SKNAS (human neuroblastoma) cell line (Homo sapiens, UniProt P21333); test: B411 surface staining by flow cytometry; type: binding; conditions: 2 μg primary antibody, 1 hour on ice
T4 construct: endogenous in cells; host or cells: SKNAS
Protocol: as §1

[7] = tested on: DU145 (human prostate cancer cell line); test: CellCountzEZ Cell Survival Assay; type: cell-based; conditions: for ratio of inhibition: dose not restated in b354 (10 μg)
Protocol: (§2) A study was conducted to assess cell survival following incubation with antibody B411. DU145 (human prostate cancer cell line) and HEK293A (human embryonic kidney cell line) cells were seeded on 96-well plates (10^4 cells/well) and incubated for 4 hours at 37° C. 1 μg or 10 μg B411 (endotoxin removed, 1.2 EU/mL) was added to the wells and incubated for 24 or 48 hours. An untreated group for both cell types was also included. Cell survival was detected using CellCountzEZ™ Cell Survival Assay kit and results were determined by reading OD412 with a reference to OD650.

[8] = tested on: HEK293A (human embryonic kidney cell line); test: CellCountzEZ Cell Survival Assay; type: cell-based; conditions: for ratio of inhibition: dose not restated in b354 (10 μg)
Protocol: as §2

T4 sequence (P21333 whole entry): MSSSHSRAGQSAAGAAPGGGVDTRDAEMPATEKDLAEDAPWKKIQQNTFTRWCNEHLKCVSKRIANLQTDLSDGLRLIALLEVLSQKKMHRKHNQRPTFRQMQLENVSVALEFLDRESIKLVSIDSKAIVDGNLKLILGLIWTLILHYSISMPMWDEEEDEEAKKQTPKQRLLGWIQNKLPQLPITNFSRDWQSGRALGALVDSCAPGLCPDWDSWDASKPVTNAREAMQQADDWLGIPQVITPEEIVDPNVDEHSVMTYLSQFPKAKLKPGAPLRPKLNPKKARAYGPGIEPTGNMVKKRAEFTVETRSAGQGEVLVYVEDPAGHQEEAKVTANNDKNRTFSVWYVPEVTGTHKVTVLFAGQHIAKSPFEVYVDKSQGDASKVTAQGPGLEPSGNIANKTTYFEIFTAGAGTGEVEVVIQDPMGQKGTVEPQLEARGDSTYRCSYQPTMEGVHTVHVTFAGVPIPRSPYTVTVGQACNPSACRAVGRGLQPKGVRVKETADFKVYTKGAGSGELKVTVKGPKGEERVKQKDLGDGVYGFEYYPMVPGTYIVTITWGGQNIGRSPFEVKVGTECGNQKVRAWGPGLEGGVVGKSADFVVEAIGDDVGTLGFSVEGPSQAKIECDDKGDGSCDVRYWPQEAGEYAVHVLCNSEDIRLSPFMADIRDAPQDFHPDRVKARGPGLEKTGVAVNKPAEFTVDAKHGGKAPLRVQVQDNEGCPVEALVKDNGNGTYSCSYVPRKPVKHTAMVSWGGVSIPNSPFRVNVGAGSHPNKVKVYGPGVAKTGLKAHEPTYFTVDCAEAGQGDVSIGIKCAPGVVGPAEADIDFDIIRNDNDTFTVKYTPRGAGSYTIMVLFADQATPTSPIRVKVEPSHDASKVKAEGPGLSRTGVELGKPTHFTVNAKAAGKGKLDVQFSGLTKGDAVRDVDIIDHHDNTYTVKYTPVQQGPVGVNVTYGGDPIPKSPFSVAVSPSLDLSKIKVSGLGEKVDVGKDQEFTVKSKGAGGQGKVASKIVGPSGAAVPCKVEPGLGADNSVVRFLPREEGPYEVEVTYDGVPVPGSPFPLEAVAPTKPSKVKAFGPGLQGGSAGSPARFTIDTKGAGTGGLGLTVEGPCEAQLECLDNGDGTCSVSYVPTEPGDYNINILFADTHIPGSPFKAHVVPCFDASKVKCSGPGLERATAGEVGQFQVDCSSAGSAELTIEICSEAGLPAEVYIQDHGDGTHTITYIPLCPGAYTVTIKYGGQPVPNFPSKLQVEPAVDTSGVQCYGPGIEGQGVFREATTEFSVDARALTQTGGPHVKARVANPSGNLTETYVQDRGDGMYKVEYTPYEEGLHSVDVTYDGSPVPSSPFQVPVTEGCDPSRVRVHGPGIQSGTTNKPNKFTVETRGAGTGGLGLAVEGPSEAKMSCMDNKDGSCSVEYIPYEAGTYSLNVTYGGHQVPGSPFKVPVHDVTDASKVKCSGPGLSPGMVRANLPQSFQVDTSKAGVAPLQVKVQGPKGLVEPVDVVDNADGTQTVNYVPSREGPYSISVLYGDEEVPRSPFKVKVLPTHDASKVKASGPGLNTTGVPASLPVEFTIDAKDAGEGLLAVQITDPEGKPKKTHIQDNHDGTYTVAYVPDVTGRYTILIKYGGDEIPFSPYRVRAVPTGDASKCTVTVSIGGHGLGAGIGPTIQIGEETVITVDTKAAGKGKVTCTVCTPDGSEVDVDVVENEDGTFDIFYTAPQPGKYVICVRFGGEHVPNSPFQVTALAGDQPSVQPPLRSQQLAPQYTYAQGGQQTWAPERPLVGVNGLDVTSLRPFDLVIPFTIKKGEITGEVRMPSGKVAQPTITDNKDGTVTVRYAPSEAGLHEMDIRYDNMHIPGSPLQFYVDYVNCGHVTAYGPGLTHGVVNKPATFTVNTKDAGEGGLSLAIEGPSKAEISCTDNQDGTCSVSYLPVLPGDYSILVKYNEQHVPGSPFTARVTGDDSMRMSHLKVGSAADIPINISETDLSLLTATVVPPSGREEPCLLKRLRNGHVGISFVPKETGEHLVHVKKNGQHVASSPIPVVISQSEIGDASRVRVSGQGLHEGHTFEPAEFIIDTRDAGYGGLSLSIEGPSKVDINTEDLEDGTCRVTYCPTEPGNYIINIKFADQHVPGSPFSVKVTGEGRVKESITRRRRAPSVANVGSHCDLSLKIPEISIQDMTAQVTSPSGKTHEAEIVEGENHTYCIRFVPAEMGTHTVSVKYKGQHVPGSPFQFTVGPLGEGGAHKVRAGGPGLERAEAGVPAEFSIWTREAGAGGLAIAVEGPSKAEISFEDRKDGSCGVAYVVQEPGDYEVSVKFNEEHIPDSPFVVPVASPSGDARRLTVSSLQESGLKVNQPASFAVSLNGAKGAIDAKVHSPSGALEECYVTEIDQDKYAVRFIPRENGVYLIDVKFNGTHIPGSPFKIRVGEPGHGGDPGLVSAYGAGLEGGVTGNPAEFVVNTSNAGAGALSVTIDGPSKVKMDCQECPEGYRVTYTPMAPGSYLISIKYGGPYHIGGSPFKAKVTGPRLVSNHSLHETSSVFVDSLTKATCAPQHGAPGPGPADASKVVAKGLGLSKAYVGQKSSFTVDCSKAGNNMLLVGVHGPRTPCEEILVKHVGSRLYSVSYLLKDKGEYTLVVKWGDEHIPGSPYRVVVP
T2 sequence (P21333 whole entry): as above
T1 sequence (P21333 whole entry): as above
T3 sequence (P21333 whole entry): as above

Molecule: C=C1[C@@H](C)[C@H]2[C@H](Cc3ccccc3)NC(=O)[C@]23OC(=O)/C=C/[C@H](O)CCC[C@@H](C)C/C=C/[C@H]3[C@@H]1O [cytochalasin B, reference compound]
effect on cell migration (MDA-MB-231 cells; tissue culture (TC) treatment wells, no coating): little effect across treatments with the exception of cytochalasin B

B1: murine antibody: recombinant mouse anti-filamin-A mAb of the disclosure (mouse antibody B186); mouse VL SEQ ID NO:22, VH SEQ ID NO:24 (antibody, listed as Mus sp., V domains shown)
VH: EVKLVESGGGLVQPGGSLKLSCAASGFTFSSYTMSWVRQTPEKRLEWVAYISNGGGSTYYPDTVKGRFTISRDNAKNTLYLQMSSLKSEDTAMYYCASDGLLRPFAYWGQGTLVTVSA
VL: DIVMTQSHKFMSTSVGDRVSITCKASQDVSIDVAWYQQKPGQSPKLLIYSASHRYTGVPDRFTGSGSGTDFTFTISGVQAEDLAVYFCQQHYSTPLTFGAGTKLELK
effect on cell motility (MDA-MB-231 cells; collagen coated wells): no considerable differences | effect on cell migration (MDA-MB-231 cells; collagen treated wells, 1 μg/mL): did not lead to a reduction in cell migration | effect on cell motility / cell migration (MDA-MB-231 cells; fibronectin coated wells, 1 μg/mL): decreases in cell motility | effect on cell motility / cell migration (MDA-MB-231 cells; fibronectin coated wells, 1 μg/mL, listed as murine mAbs): less of a reduction | cell motility (relative fluorescence units in detection zone) (MDA-MB-231 cells; fibronectin coated wells, antibody 1 μg/mL, overnight incubation): 191.34 RFU | immunofluorescence staining pattern (filamin-A; MDA-MB-231 cells, primary antibody 1.25 mcg/ml): punctate staining pattern | immunofluorescence staining pattern (filamin-A; first method: methanol fixative, 0.2% Triton permeabilization): reproduced the punctuate staining pattern

surface staining [3]: Highly Positive staining | surface staining [5]: Highly Positive staining | surface staining [6]: Highly Positive staining
B2: B411: anti-filamin-A human chimeric antibody, light chain variable region SEQ ID NO:2, heavy chain variable region SEQ ID NO:7 (antibody, V domains shown)
VH: EVKLVESGGGLVQPGGSLKLSCAASGFTFSSYTMSWVRQTPEKRLEWVAYISNGGGSTYYPDTVKGRFTISRDNAKNTLYLQMSSLKSEDTAMYYCASDGIIRPFAYWGQGTLVTVSA
VL: DIVMTQSHKFMSTSVGDRVSITCKASQDVSLDVAWYQQKPGQSPKLLIYSASHRYTGVPDRFTGSGSGTDFTFTISGVQAEDLAVYFCQQHYSTPLTFGAGTKLELK
modifications: VH domain of mAbs B407 and B411; human chimeric mAb VL domain of mAbs B408, B409, B410, and B411
Calcein AM staining (metabolic activity) [1]: more variability in Calcein AM staining | Hoechst 33342 staining (apoptosis-like phenotype) [1]: increase in Hoechst 33342 staining | endocytosis of antibody [2]: detected | number of cells positive for endocytosis, SKBR3 compared to HEK (non-cancer) cells [2]: More SKBR3 cells were positive for B411 than HEK cells | surface staining [4]: some positive staining; also recorded: weaker compared to the other cell lines tested | inhibition effect on proliferation versus untreated group ([7]; 1 μg dosing, 24 h): significant inhibition effect on proliferation | inhibition effect on proliferation versus untreated group ([7]; 1 μg dosing, 48 h): no statistically significant effect | cell proliferation (OD412 with reference to OD650) ([7]; 1 μg or 10 μg, 24 or 48 hours, overall statement): inhibits DU145 (cancer) cell proliferation | inhibition effect on proliferation versus untreated group ([7]; 10 μg dosing, 24 h and 48 h): significant inhibition effects on proliferation | ratio of inhibition ([7]; 24 h): 7.8% | ratio of inhibition ([7]; 48 h): 14.6% | effect on cell proliferation ([8]; 1 μg dose, 24 h or 48 h): did not have an effect | inhibition of cell proliferation ([8]; 10 μg): Inhibition of HEK293 cell proliferation was also observed | ratio of inhibition ([8]; 24 h): 9.3% | ratio of inhibition ([8]; 48 h): 17.7%
